In PMC11429891:

Target: human recombinant SNAP25 (Synaptosomal Associated Protein 25) (human) (UniProt P60880)
Experiment: SPR

Chain of human recombinant SNAP25 (Synaptosomal Associated Protein 25) (human) (P60880 whole entry): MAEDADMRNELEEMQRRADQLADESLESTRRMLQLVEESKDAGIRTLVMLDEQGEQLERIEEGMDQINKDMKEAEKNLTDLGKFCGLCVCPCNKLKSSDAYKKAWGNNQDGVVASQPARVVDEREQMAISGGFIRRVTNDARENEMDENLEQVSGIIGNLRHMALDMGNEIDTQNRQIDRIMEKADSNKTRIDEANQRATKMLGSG

- Kd: 7.2 µM
Substance: Human type V Collagen (from UniProt P20908 38-1605; P05997 27-1229) (complex)
